Assay: yeast display, Sf9 membrane polyspecificity reagent, FACS + sequencing; frameworks hold sequencing errors
Outline: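 Nanobodies from a synthetic yeast display library (Saccharomyces cerevisiae BJ5465), induced 36–48 hours with galactose, were stained 1 hour at 4 °C with 10% biotinylated, detergent-solubilized Sf9 membrane reagent, enriched on streptavidin microbeads, then FACS-sorted. Anti-HA (expression) and streptavidin (reagent binding) fluorescence set low and high (top ~1%) gates. Polyreactivity labels come from the gate of origin. Genes were colony-PCR amplified, MiSeq 2 × 250 sequenced and filtered by CDR length.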

Sequence	polyreactivity (PSR sort gate)
QVQLVESGGALVQAGGSLRLSCAASGSTFFHYAMGWYRQAPGKERELVAAIDSNGGSTYYADSVKGRFTISRDNAKNTVYLQMNSLKPEDTAVYYCAADDLAEFEYDYWGQGTQVTVSS	low polyreactivity
QVQLVESGGGLVQAGGSLRLSSAASGRTFRGYAMGWYRQAPGKERELVAAISVTGSSTNYAYSVKGRFTISRDNAKNTVYLQMNRLKPEDTAVYDCNAKRVRYSLSYDYWGQGTQVTVSS	high polyreactivity
QVQLVDSGGGLVQAGGILSLSCASSGRTFYRYAMGWYRQAPGKERELVAAISATGCSTYYADSVKGRFTISRDNEKNTGYFQMNIMKPEDSAVDYCARGGTTLYWGQGTQLTVSS	high polyreactivity
QVQLVESGGGLVQAGGSLRLSCAASAFIFRFYTMGWYRQATGKETELVAAITSRGDRTYYADSVKRRFTISRENAKNPVYLQMNSLKPEDTAVYYCAKATRGYRSPYGSIGYYYRGQGTQVTVSS	high polyreactivity
QVQLEESGGGLVQAGGSLRLSCAASGFIFGYYGMGWYRQAPGKERELVAAITDGGSTTYADSVKGRFTISRDNAKNTVYLQMNSLKPEDTAVYYCNAEAGGFDYYGKTYRYGDYWGQGTQVTVSS	low polyreactivity
QVQLVESGGGLVQAGGSLRLSCAASGSISRYYAMGWYRQAPGKERELVAAISSNGGSTYYADSVKGRFTISRDNAKNTVYLQMNSLKPEDTAVYYCNAYYVGYIRYWTNKLVDYWGQGTQVTVSS	high polyreactivity
QVQHVESGGGLVQAGGSLRLSCAASGFIFRRYPLGWYRQAPGKERELVASISSGGNTDYADSVKGRFTISRDNAKNTVYLQMKSLNPEDTAVYYCNARVRWYPGYDYWGQGTQVTVSS	high polyreactivity
QVQLVESGAGLVQAGGRLRLSCAASGRIFIRNAMGWSRQAPGKERELVAAIDSVGSTNYADSVKGRFTISRDNAKNTVYLQLNSLKPEETAVYYCAARGWKYASPYWGYYYWGQGSQVTVSS	low polyreactivity
QVQLEESGGGLVQAGGSLRLSCAASGFIFFKYAMGWYRQAPGKEREFVAAISKSGTSTYYADSVKGRFTISRDNAKNTVYLQMNSLKPEDTAVYYCAKRYLTRYKGYYYWGQGTQVTVSS	high polyreactivity
QVQLVESGGGLVQAGGSLRLSCAASGRIFYPNAMGWYRQAPGKERELVAAISSGGRTNYADSVKGRFTISRDNAKNTVYLQMNSLKPEDNAVYYCAARDRSQYTSTYAFGGGYWGHGTQVTVSS	low polyreactivity
QVQLVESGGGLVQAGGSLRLSCAASGSTFSGYMGWNRQAPGKERELVAAITSGGSTNYADSVKGRFTISRDNAENTVYLQMNSLKPEDTAVYYCAAQGRWLGWRGYDYWGLGTQVTVSS	high polyreactivity
QVQLVDSGGGLVQAGGSLRLSCAASGIIFVGYAMGWYRQAPGKERELVAAITYNVGSTYYADSVKGRFTISRDNAKNTVYLQMKSLKPEDTAVYYCNADRYPFFDLLISRYGSNPYDYWGQGTQVTVSS	low polyreactivity
QVQLVESGGGLVQAGGSLRLSCAASGLTFVYYAMGWYRQAPGKERELLAAISRSGGSTYYADSVKGRFTISRDNAKNTVYLQMNSLKPEDTAVYYCAAEATKWFGVVTMDYWGQGTQVTVSS	high polyreactivity
QVQLVESGGGLVQAGGSLRLTCAASGIIFYIYAMGWYRQAPGKERELVAGISWRGGSTSYADSVKGRFTISRDNAKNTVYLQMNSLKPEDTAVYYCAAEVYSWDGYDYWGQGTQVTVSS	low polyreactivity
QVQLVESGGGLVQAGGRLRLSCAASGYTFEGYAMGWDRQAPGKERELVAAISRSGGRRYYADSVKGRFTISRDNAKNTVYLQMNSLKPEDTAVYYWAAGGYYQRTRGYWGQGTQVTVSS	high polyreactivity
QVQLVESGGGLVQAGGSLRLSCAASGFTFRRNAMGWYIQAPGKERELVAAINVRDGSTYYADSVKGRFTISRDNAKNTVYLQMNSLKPEDTAVYYCAAEFFQGYYWYYYWGQGTQVTVSS	high polyreactivity
QVQLVESGGGLVQAGGSLRLSCAASGSTFQRYAMGWYRQAPGKERELVAAITWSGGSTYYADSVKGRFTISRDNAKNTGYLQMNSLKPEDTAVYYGAARSVRYGFGYWGQGTQVTVSS	high polyreactivity
QVQLVESGGGLVQAGGSLRLSCAASGRTFGPYVMGWYSQAPGKDRELVAVIRWSGVSTYYADSVKGRFTISRDKAKNTVYLLRNSMTPEDTAVDYCNAVRPYRLASYDYWGQGTQVTVSS	high polyreactivity
QVQLVESGGGLVQAGGSLRLSCAASGNIFFTYAMGWYIQEPGKERELVAAITSGGRTYYADSVKGRFTISRDNAKNTLHLQMNSLKPEDTAVYYCAAYYKYLGYGYWGQGTQVTVSS	high polyreactivity
QVQLVESGGGLVQAGGSLRLSCAASGSIIGTNVMGWYRQPPGKERELVPSISYRDGTTYYADSVKGRFTISRDNAKNTVYLQMNSLKPEDTAVYYFAVANYYSYYWGQGTQVTVSS	low polyreactivity
QVQLVESGGGLVQAGGSLRLSCAASGRTFRYNTMGWYRPAPGKERELVAAISSGGGRTYYADSVKGRFTISRDNAKNTVYLQMNSLIPEDTAVYYCAADRYFRSRRSYEYWGQGTQVTVSS	low polyreactivity

Sequence	polyreactivity (PSR sort gate)
QVQLVESGGGLVQAGGSLRLSCAASGNTFPWYAMGWSRQAPGKERELVAAINSGGRTNYADSVKGRFTISRDNAKNTVYLQMNSLKQEDTAVYYCAAAFDWGLYCFDYWGQGTQVTVSS	high polyreactivity
QDQHVESGGGLVQAGGSLRLSFAASGRTFISYTKGWYRPAPGKERELVAAINFSGGITYYADSVKGRFTISHDNAMNTVYLQMNSLKPVDTAVYYCAADWRTRYDYWGQGTQVTVSS	low polyreactivity
QVQLGESRGGLVQAGGSLRLSCAASGIIFTFNAMVWYSQAPGKERELVAGISQGGSSTNYADSVKGRFTISRDNAKNTVDLQRNSLKREVTAVYYCAAYVDIVGDYWVVGYYYWGQGTQVTVSS	low polyreactivity
QVQLVESGGGLVQAGGSLRLSCAASGSTFILNDMGWYRQAPGKERELVAAIDWGDSTTYYADSVKGRFTISRDNAKNTVYLQMNSLKPEDTAVYYCAADYAVSAFTRYPPTEYWGQGTQVTVSS	high polyreactivity
QVQLVESGGGLVQAGGSLRLSCAASGIIFPYNTMGWYRQAPGKERELVASIDDGGSTNYADSVKGRFTISRDNAKNTVYLQMNSLKPEDTAVYYCNADLFFIYVRQPGYDYWGQGTQVTVSS	low polyreactivity
QVQLVESGGGLVQAGGSLRLSCPASGSIFDRYAMGWYRQAPGKERELVAAISWSDSRTYYADSVKGRFTISRDNAKNTVYFQMNSLKPEDTAVYYCAADGSTWGDYRTYGYWGQGTQVTVSS	low polyreactivity
QVQLVESGGGLLQAGGSLRLSCAASGIIFGRYTMGWYRKAPGKETELVAAITSSGITYYADSVKGRFTISRDNAKNTVYLQMNSLKPEDTAVYYCYADYSIPGYYWPYDYWGQGTQVTVSS	low polyreactivity
QVQLVESGGGLVQAGGSLRLSCAASGSIFPYNAMGWYRQAPGKERELVAAITTSGTSTYYADSVKGRFTISRDNAKNTVYLQMNSLKPEDTAVYYCAATSRGAISKARFYYWGQGTQVTVSS	high polyreactivity
QVQLVESGGGLVQAGGSLRLSCAASGSIFGTNTMGWYRQAPGKEREFVAVITGSTTSTYYADSVKGRFTISRDNAKNTVYLQMNSLKPEDTAVYYCPTDYWWDLFEYDYWGQGTQVTVSS	high polyreactivity
QVQLVESGGGLVQAGGSLRLSCAASGSIFGYYAMGWYSQAPGKERELVAAFTASGGSTYYADSVKGRFTISRDNAKNTVYFQMNSLKPEDTAVYYCAAGTHTDYGRYYYWGQGTQVTVSS	low polyreactivity
QVQLVESGGGLVQAGGSLRLSCAASGRTIVVYGMGWYRQAPGKERELVATINYGGNTYYADSVKGRFTISRDNAKNTVYLQLNSLKPEDTAVYYCATRSYARYYTYDYWGQGTQVTVSS	low polyreactivity
QVQLVESGGGLVQAGGSLRLSCAASGGTYGTNAMGWYRQAPGKERELVAAITKTGVRTYYADSVKGRFTISRDNAKNTVYLQMNSLKPEDTAVYYCAAGNPAWPFNYWGQGTQVTVSS	high polyreactivity
QVQLVESGGGLVQAGGSLRLSCAASGRTFYHYAMGWYRQAPGKESELVAAIDWSTASTYYADSVKGRFTISRDNAKNTVYLQMNSLKPEDTAVYYCATDTAILINFVLYDYWGQGTQVTVSS	low polyreactivity
QVQLVESGGGLVQAGGSLRLSCAASGLTFGGSAMGWYRQAPGKERELVAGISSSGNTNYADSVKGRFTISRDNAKNTVYLQMISLKPEDTAVYYCAADENITYPVYDMYYWGQGTQVTVSS	low polyreactivity
QVQLVESGGGLVQAGGSLRLSCAASGRTFIKNAMGWYRQAPGKERELVAAINWSGTRTYYADSVKGRFTISRDNAKNTVYLQMNSLKPEDTAVYYCAKVIARYVRYDYWGQGTQVTVSS	high polyreactivity
QVQLVESGGALVQAGGSLRLSCAASGSIFSRYTMGWYRQAPGKERELVAAIPSSGGRTYYADSVKGRFTNSRDNAKNTVYLQMNSLKPEDTAVYYCNAGGAYEYDYWGQGTQVTVSS	high polyreactivity
QVQLVESGGGLVQAGGSLRLSCAASGSTFTPYAIGWYRQAPGKERELVAAIRRGGSTNYADSVKGRFTISRDNAKNTVYLQMNSLKPEDTAVYYCAATKRRFVKFDYWGQGTQVTVSS	low polyreactivity
QVQLVESGGGLVQAGGSLRLSCAASGSTFYVNAMGWYRQAPGKERELVAGISYNAGSTYYADSVKGRFTISRDNAKNTVSLQMNSLKPEDTAVYYCAAYPYWRWYGYLGYDYWGQGTQVTVSS	low polyreactivity
QVQVVESGGGLVQAGGSLRLSCAASGRTFVSYAMGWYRQATGKERELVAAISSSGGRTYYADSVKGRFTISRDNAMNTVYLQMNSLKPEDTAVYYCYAVRFISARYDYWGQGTQVTVSS	high polyreactivity
QVQLVESGGGLVQAGGSLRLSCAASGFTFGFYAMGWYRQAPGKERELVAAISKRGGSTYYADSVKGRFTISRDNAKNTVYLQMNSLKPEDTAVYYCAAVYTQSRGWEYDYWGQGTQVTVSS	high polyreactivity
